This passage reports Kd results from US20190316116A1 (MONASH UNIVERSITY, published 2019).

This assay has as its target lysozyme (UniProt P00698 19-147). Nature of the assay: method not stated (data not shown).

Chain of lysozyme (P00698 19-147 limits assumed): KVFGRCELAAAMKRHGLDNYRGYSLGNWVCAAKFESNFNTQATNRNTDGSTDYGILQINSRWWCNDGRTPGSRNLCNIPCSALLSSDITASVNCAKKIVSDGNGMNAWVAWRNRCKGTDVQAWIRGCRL

B1: FN3con.DE0.4.1_graft_v1 (designed binder)
chain: PSPPGNLRVTDVTSTSVTLSWRGYPWATGYRVEYREAGGEWKEVTVPGDLSHRYTVTGLKPGTEYEFRVRAVNRVGRTFDTPGPSSVSVTT
notes: Made by gene synthesis, expressed in E. coli and purified; also called the designed graft; the graft
For B1, the dissociation constant Kd is roughly 100 µM.

By Kd is commonly meant the equilibrium constant for the complex coming apart. A low value points to higher affinity.
